# Laboratory results published in patent US20260132208A1 (DOMAIN THERAPEUTICS, published 2026).
# Several values for one entry are separate records, joined by “and”; a condition that tells them apart may be missing. Identical values can stand only once.
# B1: anti-CCR8 mAb 1-9 (antibody, V domains shown)
# VH: EVQLVESGGGLVQPKGSLKLSCAASGFTFNAYAMNWVRQAPGKGLEWLARIRSKSNNYATYYADSVKDRFTISRDDSQSMFYLQMNNLKSEDTAMYYCVRGREAYYRYDGGYYAMDYWGQGTSVTVSS
# VL: EIVMTQAALSAPVTPGESVSMSCRSSKSLLHSNGNTYLYWFLQRPGQSPQLLIYRMSNLASGVPDRFSGSGSGTAFTLRISRVEAEDVGVYYCMQHLEYPFTFGSGTKLEIK
# notes: Murine hybridoma mAb
# Key:
# human CCR8 [1] = molecular target: T1, human CCR8 (human, UniProt P51685 1-355); experiment: cell-based or functional assay
# human CCR8 [2] = molecular target: T1, human CCR8; experiment: cell-based or functional assay; remark: listed apart in the source
# human CCR8 [3] = molecular target: T1, human CCR8; experiment: cell-based or functional assay; remark: listed apart in the source
# human CCR8 [4] = molecular target: T1, human CCR8; experiment: flow cytometry, inhibition of hCCL1-AF647 (10 nM) binding to hCCR8-CHO cells
# Procedure, shortened: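 hCCR8-transfected CHO cells preincubated 30 min at 4 °C with anti-CCR8 mAb (8 concentrations, top 10 μg/mL, 1/3 dilutions), washed, then exposed to labelled CCL1. Bound CCL1 quantified by flow cytometry; IC₅₀ of binding blockade from sigmoidal variable-slope fit.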
# pm3 = molecular target: T2, pm3 (Y17 sulfated; Y15 and Y16 not sulfated); experiment: ELISA on coated peptide [cont.]
# T2 construct: also called sulfated CCR8 N-terminal peptide pm3
# T2 sequence (peptide, as listed by the source): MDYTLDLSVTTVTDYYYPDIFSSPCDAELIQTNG
# Procedure, shortened: (§1)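 Optical density after 15 min TMB development is the read-out, correlated with antibody binding to the coated peptide. Plates carried peptide at 500 ng/ml in carbonate/bicarbonate buffer. Antibodies were incubated at 1 μg/mL and at a tenfold dilution for 90 min at room temperature, followed by washes.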
# pm8 = molecular target: T3, pm8 (Y15, Y16 and Y17 sulfated); experiment: ELISA on coated peptide [cont.]
# T3 construct: also called sulfated CCR8 N-terminal peptide pm8
# T3 sequence (peptide, as listed by the source): as above
# Procedure, shortened: as §1
# pm6 = molecular target: T4, pm6 (Y16 and Y17 sulfated; Y15 not sulfated); experiment: ELISA on coated peptide [cont.]
# T4 construct: also called sulfated CCR8 N-terminal peptide pm6
# T4 sequence (peptide, as listed by the source): as above
# Procedure, shortened: as §1
# pm5 = molecular target: T5, pm5 (Y15 and Y17 sulfated; Y16 not sulfated); experiment: ELISA on coated peptide [cont.]
# T5 construct: also called sulfated CCR8 N-terminal peptide pm5
# T5 sequence (peptide, as listed by the source): as above
# Procedure, shortened: as §1
# human CCR8 [5] = molecular target: T1, human CCR8; experiment: flow cytometry, hCCR8-transfected CHO-K1 cells
# Procedure, shortened: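 Antibody incubation ran 30 min at 4° C, followed by fluorescent anti-mouse or anti-human IgG secondary for 30 min at 4° C. Isotype-matched mAbs served as nonspecific-binding controls.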
# human CCR8 [6] = molecular target: T1, human CCR8; experiment: flow cytometry competition on hCCR8 transfected CHO cells; blocked ligand hCCL1-AF647 [cont.]
# Experimental: The hCCR8 transfected CHO cell line was dispatched at a density of 1.105 per well in a 96-well plate. Cells were incubated for 30 min at 4° C. with or without anti-CCR8 mAb tested at 10 μg/mL then diluted at 1/3. Unbound antibodies were washed away with PBS (Gibco, Villebon-sur-yvette, France) supplemented by 2% Fetal Bovine Serum (Invitrogen by Thermofisher Scientific, Illkirch-Graffenstaden, France) and 2 mM EDTA. […] After washing unbound ligands, CCL1 bound detection is quantified on a MacsQuant16 (Miltenyi, Gladbach, Germany) (R1 channel, 5 000 events per acquisition).
# For IC₅₀ determination, a concentration response curve is performed using 8 concentrations of mAb. Curves are fitted and IC₅₀ of CCL1 binding blocking activity is calculated using the sigmoidal dose-response (variable slope) model on GraphPad Prism 9 (GraphPad Software, San Diego, CA, USA).
binder,measurement,setting,value
B1,"extrapolated top plateau of hCCL1 curve with 5 µg/mL mAb, protocol #3",human CCR8 [1],533000 % of hCCL1 (100 nM)
same,"IC50 of CCL1-induced hCCR8 Gi2 signaling (BRET, HEK-293)",human CCR8 [2],0.015 µg/mL and 0.1 nM
same,"residual hCCL1 (100 nM) Gi2 response, protocol #2, mAb 0.08 µg/mL",human CCR8 [3],88%
same,"residual hCCL1 (100 nM) Gi2 response, protocol #2, mAb 0.4 µg/mL",human CCR8 [3],57%
same,"residual hCCL1 (100 nM) Gi2 response, protocol #2, mAb 10 µg/mL",human CCR8 [3],46%
same,"residual hCCL1 (100 nM) Gi2 response, protocol #3, mAb 0.05 µg/mL",human CCR8 [3],73%
same,"residual hCCL1 (100 nM) Gi2 response, protocol #3, mAb 0.5 µg/mL",human CCR8 [3],36%
same,"residual hCCL1 (100 nM) Gi2 response, protocol #3, mAb 5 µg/mL",human CCR8 [3],36%
same,IC50,human CCR8 [4],~0.91 µg/mL and 6.09 nM
same,binding result,pm3,binds
same,binding result,pm8,binds
same,binding result,pm6,binds
same,binding result,pm5,binds
same,% positive cells,human CCR8 [5],81.8%
same,MFI fold change to isotype ctrl,human CCR8 [5],16.2 fold
same,IC50 (read off the curve),human CCR8 [6],~0.9 µg/mL
